The text below walks through data of article PMC7783346.

The subject of this data set is His6-KfrA G38A (plasmid RA3 (IncU; Aeromonas hydrophila in Fig S1/S3)). The experiment in a line: EMSA. The following applies: EMSA: 50 mM Tris-HCl pH 8.0, 10 mM MgCl2, 50 mM NaCl, 37 C, 30 min, 10 nM EcoRI-NdeI-digested plasmid DNA (vector fragment as internal competitor), 20 ul …. (Mobility shift assays separate free from complexed probe on a gel.)

Take “WT OK (kfrAp), EcoRI-NdeI fragment of pESB2.68”: the K half is 260 nM.
